Results: article PMC8448823, “Structural basis of RNA polymerase inhibition by viral and host factors” (Nature Communications, 2021)

Legend:
Conditions in all cases: both partners purified
[1] = target: T1, Rpo2 subunit of Sulfolobus acidocaldarius RNA polymerase (Sulfolobus acidocaldarius, UniProt P11513 1-1126); experiment: cryo-EM structure; RNAP incubated with a 10-fold excess of RIP for 5 min at 65 °C, then cross-linked with 2 mM BS3; 20 mM Hepes pH 7.0, 200 mM NaCl, 5 mM MgCl2; map at 3.27 Å
T1 construct: Rpo2, subunit of the Sulfolobus acidocaldarius RNA polymerase (protrusion and lobe); Stood within the whole 13-subunit RNAP; source: part of the RNAP purified from Saci strain MW001

[2] = target: T2, Rpo1′ subunit of Sulfolobus acidocaldarius RNA polymerase (Sulfolobus acidocaldarius, UniProt P11512 1-880); experiment: as above
T2 construct: Rpo1′, subunit of the Sulfolobus acidocaldarius RNA polymerase (clamp, rim helices, bridge helix); Stood within the whole 13-subunit RNAP; source: part of the RNAP purified from Saci strain MW001

[3] = target: T3, Rpo1″ subunit of Sulfolobus acidocaldarius RNA polymerase (Sulfolobus acidocaldarius, UniProt P11514 1-393); experiment: cryo-EM structure; RNAP incubated and cross-linked (BS3, 65 °C) in presence of a 20 molar fold excess of TFS4; map at 2.61 Å
T3 construct: Rpo1″, subunit of the Sulfolobus acidocaldarius RNA polymerase (upper jaw, trigger loop); Stood within the whole 13-subunit RNAP; source: part of the RNAP purified from Saci strain MW001

[4] = target: T1, Rpo2 subunit of Sulfolobus …; experiment: as above
[5] = target: T2, Rpo1′ subunit of Sulfolobus …; experiment: as above
[6] = target: T2, Rpo1′ subunit of Sulfolobus …; experiment: cryo-EM structure; apo-RNAP cross-linked with 2 mM BS3 for 5 min at 65 °C; 20 mM Hepes pH 7.0, 200 mM NaCl, 5 mM MgCl2; map at 2.88 Å

T2 sequence (P11512 whole entry): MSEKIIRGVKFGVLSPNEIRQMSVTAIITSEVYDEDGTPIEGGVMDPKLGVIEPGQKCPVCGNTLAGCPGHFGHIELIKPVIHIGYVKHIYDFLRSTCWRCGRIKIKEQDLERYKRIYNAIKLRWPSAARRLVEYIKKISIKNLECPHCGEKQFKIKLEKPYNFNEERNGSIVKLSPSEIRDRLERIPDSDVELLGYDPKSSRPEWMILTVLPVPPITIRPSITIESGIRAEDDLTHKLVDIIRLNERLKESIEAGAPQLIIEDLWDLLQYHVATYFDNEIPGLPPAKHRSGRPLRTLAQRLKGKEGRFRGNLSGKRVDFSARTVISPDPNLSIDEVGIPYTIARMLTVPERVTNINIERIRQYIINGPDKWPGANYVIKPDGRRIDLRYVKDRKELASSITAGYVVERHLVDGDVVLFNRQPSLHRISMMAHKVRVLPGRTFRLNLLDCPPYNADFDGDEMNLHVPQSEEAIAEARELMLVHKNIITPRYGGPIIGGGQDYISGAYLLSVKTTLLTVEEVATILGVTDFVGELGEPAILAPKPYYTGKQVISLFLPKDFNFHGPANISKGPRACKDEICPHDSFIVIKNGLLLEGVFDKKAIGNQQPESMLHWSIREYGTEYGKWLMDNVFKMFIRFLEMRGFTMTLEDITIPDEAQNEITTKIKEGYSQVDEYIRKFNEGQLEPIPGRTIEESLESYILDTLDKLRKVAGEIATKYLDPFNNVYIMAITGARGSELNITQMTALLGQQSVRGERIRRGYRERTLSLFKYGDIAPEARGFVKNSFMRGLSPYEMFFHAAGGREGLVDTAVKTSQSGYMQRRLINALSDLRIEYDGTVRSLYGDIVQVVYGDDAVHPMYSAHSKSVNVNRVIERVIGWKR
T1 sequence (P11513 whole entry): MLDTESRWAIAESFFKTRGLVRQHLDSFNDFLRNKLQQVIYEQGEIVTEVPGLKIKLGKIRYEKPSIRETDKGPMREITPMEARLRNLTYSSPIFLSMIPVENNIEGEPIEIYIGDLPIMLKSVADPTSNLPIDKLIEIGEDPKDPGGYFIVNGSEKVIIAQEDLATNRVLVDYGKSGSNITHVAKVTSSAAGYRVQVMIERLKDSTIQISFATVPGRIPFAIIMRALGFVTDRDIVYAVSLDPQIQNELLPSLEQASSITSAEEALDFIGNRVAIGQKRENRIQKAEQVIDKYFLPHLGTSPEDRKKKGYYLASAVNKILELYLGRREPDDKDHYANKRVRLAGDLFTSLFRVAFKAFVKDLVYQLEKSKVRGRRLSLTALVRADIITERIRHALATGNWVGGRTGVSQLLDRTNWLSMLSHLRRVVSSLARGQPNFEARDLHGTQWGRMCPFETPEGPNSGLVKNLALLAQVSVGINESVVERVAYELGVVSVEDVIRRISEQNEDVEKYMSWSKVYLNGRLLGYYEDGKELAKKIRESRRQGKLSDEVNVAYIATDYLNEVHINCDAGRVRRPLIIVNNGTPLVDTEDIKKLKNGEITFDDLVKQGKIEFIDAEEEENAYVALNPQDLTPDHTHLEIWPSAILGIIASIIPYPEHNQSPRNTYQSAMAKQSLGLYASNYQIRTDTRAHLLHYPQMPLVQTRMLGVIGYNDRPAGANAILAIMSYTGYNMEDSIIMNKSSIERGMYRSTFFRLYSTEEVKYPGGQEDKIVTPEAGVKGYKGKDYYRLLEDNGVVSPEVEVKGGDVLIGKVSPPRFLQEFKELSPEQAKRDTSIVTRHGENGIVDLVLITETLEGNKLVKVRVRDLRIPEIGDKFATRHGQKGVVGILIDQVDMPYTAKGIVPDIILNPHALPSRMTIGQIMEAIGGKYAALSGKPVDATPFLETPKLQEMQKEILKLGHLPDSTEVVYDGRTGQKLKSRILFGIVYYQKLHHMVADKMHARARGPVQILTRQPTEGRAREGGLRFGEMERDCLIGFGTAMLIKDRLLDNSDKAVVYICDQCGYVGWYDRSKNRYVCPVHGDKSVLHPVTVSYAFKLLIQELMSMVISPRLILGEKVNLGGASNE
T3 sequence (P11514 whole entry): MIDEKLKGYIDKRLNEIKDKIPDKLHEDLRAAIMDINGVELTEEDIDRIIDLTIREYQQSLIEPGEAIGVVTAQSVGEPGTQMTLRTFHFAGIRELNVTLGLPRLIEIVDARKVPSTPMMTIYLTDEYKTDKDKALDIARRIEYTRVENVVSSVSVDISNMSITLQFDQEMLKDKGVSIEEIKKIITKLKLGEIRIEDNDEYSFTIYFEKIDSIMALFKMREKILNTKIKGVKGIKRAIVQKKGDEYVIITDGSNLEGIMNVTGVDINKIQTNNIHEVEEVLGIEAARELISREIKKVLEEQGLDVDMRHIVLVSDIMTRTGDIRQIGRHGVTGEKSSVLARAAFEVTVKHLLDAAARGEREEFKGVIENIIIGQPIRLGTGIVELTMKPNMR

B1: ATV RIP (RNAP Inhibitory Protein, ORF145) of Acidianus two-tailed virus (natural protein, Acidianus two-tailed virus (ATV))
chain: MKNMLHPQKYETHVLDDLMEFYEGVIGYPEIDLRLAGEEAWLKGVNPELAEAVKKIIKTIRRYLEGSPYDGSEKPIPRYIIAEIFSQIAPEVQLLVNALDTEGKYGFLKHIKKLNLNSLAMLSKNYNENDKLWKELENEGYVYLE
notes: RIP (ORF145) of Acidianus two-tailed virus (ATV); 145 aa printed; residues 10–127 resolved in the RNAP–RIP structure; source: E. coli BL21 pLyS, purified (heat step 60 °C, Ni-column, TEV cleavage, second Ni-column); not shown: 6×His, N-terminal, cleaved
binding result [1]: binds
binding result [2]: binds

B2: Sso TFS4 (natural protein)
chain: MRFCPKCGSFLKVKGNKMVCSKCGYSDHDVEKVILKENVAHENDKTIIADGETIEGRVAISLCPRCGSVRAILLNKKKRLYRCMTCNFVYNI
notes: TFS4, paralogue of the transcript cleavage factor TFS; two zinc-ribbon domains ZR^N and ZR^C joined by a linker; expressed without tag; source: E. coli BL21 pLysS, purified (heat step 65 °C, HiTrap Q, Superose 12)
binding result [3]: binds
binding result [4]: binds
binding result [5]: binds

B3: Rpo8 subunit of Sulfolobus acidocaldarius RNA polymerase (natural protein)
chain: MMQGTCKISSIEKGALKNLYVVKMDCDNDLKIEFDITKELSIFSKDEEVTFIISREKPEYSEKDFCAHGYLFLERQQEDGSFIDEISLYGLIVKILSKNGLINSKLFKMMDHVYYCVKKKA
notes: Rpo8, subunit of the Sulfolobus acidocaldarius RNA polymerase; holds the conserved GGLLM motif; Stood within the whole 13-subunit RNAP; source: part of the RNAP purified from Saci strain MW001
binding result [6]: binds
